Laboratory results from the supplement of paper PMC9170038.

Test system: MS2 coat protein
Assay: apparent KD of MS2 coat protein; designed switch direction (-1 OFF switch, 1 ON switch): 1; higher = weaker reporter binding
How it was run: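 Designed RNA switches with common flanks were transcribed on Illumina chips by stalled E. coli RNA polymerase and titrated with SNAP-549-labelled MS2 coat protein, from 0.7 or 1.5 nM doubling to 3 µM, in Tris-HCl pH 7.5 buffer with KCl, MgCl2, BSA, DTT, tRNA and Tween-20. Steps lasted 0.8–1.5 h (lowest) to 10–20 min (highest). Titrations ran without input, with 200 uM small-molecule ligand, or with an oligonucleotide input. Normalised cluster fluorescence was curve-fitted, and apparent KD is the per-design median over clusters.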

[1] = input ligand: microRNA oligo, concentration not stated
[2] = Eterna round: R95, input ligand: FMN 200 uM
[3] = Eterna round: R95, input ligand: microRNA oligo, concentration not stated
[4] = Eterna round: R95, input ligand: none

| Sequence | apparent KD of MS2 coat protein (input ligand: FMN 200 uM) [nM] | apparent KD of MS2 coat protein [1] [nM] | apparent KD of MS2 coat protein (input ligand: none) [nM] | apparent KD of MS2 coat protein [2] [nM] | apparent KD of MS2 coat protein [3] [nM] | apparent KD of MS2 coat protein [4] [nM] |
| --- | --- | --- | --- | --- | --- | --- |
| AUGAUCUACCGAAAGGUAGAUCGGCUUGUACAUGAGGAUCACCCAUGUAUGUACAAGCUUUUUGCUCGUCUUAUAAA [Modxample - Jieux - Sensor for bsa-mir-208a] (Eterna round: R96, puzzle: Sensor for hsa-mir-208a) | 279 | 16.6 | 282 | – | – | – |
| GUGCAACCGUGUGAGGAUAUCGGUGGUAAAACAUGAGGAUCACCCAUGUCCGAAGCUCGGAUCUCCGAGAAGGCGCACAGUUGCA [Same State 2 - Mod of Erisin v.2] (puzzle: Same State 2) | – | – | – | 27.8 | 290 | 470 |
| GGUAGGUUACUACCAACACAUGAGGAUCACCCAUGUUAGUGGGAGGAUAUGGUACCUAUUUGGUACCAGAAGGUCCAGUUAAUU [Fiskers NG3ss - 15] (Eterna round: R96, puzzle: Same State NG 3) | 131 | 161 | 435 | – | – | – |
| UGAAUAGUUACAGGAUAUGAGCCGAAAAUUGGGUCAGAAGGGUGGGUGUUGUGCGCUAUGUGCUACAUGAGGAUCACCCAUGUU [SameState NG1 #35] (Eterna round: R96, puzzle: Same State NG 1) | 1210 | 23.3 | 208 | – | – | – |
| UUUACAUUACGAGGAUAUCAAUUAUUUCAUGUUUGAGAAGGCGUUUUUUUUAUUACCUUACAUGAGGAUCACCCAUGUUUCAUU [JR_SSNG1_Sub042] (Eterna round: R96, puzzle: Same State NG 1) | 19.4 | 18.4 | 25.5 | – | – | – |
| UGGUACAUGGGAGGAUAUCCUCAUGAGACAUGAGGAUCACCCAUGUAUUAUAAGCCGAAAGGCAUGGAGAAGGCCCAUGUACCU [JL SSNG1 3.83] (Eterna round: R96, puzzle: Same State NG 2) | 25 | 269 | 455 | – | – | – |
| CCAAAGUACAAUUUAGAUCUACAUGAGGAUCACCCAUGUACUGAGGAUAUCAGCUCGAUUAGAGCUGAGAAGGCAGAAUUAAUU [SSNG3/4-A2] (Eterna round: R96, puzzle: Same State NG 3) | 101 | 90 | 148 | – | – | – |
| UGGCUCAGACGAGGAUAUACGUGGUCACAUGAGGAUCACCCAUGUCUCGAGCUUCGGCUCGAGGCGUAGAAGGCGUCUGAGCCU [SSNG2/6-A3] (Eterna round: R96, puzzle: Same State NG 2) | 112 | 133 | 151 | – | – | – |
| GAGAGACGAUUAGGAUAUACAGUGAUAAUGAUAGUAGAAGGAAUUGACAUGAGGAUCACCCAUGUAGGACUAAUCCAGAGAGAG [Parity 27 - Jieux - Same State NG 1] (Eterna round: R96, puzzle: Same State NG 1) | 46 | 36.4 | 52.2 | – | – | – |
| GCUACCAAUGAAGCCAACAUGAGGAUCACCCAUGUAUGUUGGUAGGAUAUCGUUUGCUUUGCAAACGAGAAGGGCUAAGGUAGC [JL SSNG3 1.26] (Eterna round: R96, puzzle: Same State NG 3) | 42.2 | 39.2 | 42.6 | – | – | – |
| UCAAUCAUGUAAGGAUAUGCAGCCGAAACGGCUGCAGAAGGUACUAUAAUUACAUGAGGAUCACCCAUGUUAUAAAAUUUAAAU [Mat - Same State NG 1 - JL mod - D68] (Eterna round: R96, puzzle: Same State NG 1) | 35.5 | 46 | 123 | – | – | – |
| AUAAAACAUGAGGAUCACCCAUGUCAACAAAGUCGAGGAUAUGGGCAAUUAAAAUAAGAACCAGAAGGCGAAUAAU [salish99_ss1_r3_025] (Eterna round: R96, puzzle: Same State 1) | 35.7 | 214 | 250 | – | – | – |
| GUGCUCGUGUGAGGAUAUGCUUCCGUUUCGGCUGCAGAAGGUACUAUUAUACAUGAGGAUCACCCAUGUCCCUUUUCUCCGGUG [salish99_SSNG1_r04_914] (Eterna round: R96, puzzle: Same State NG 1) | 18.4 | 13.5 | 21.9 | – | – | – |
| AGUCCAGCCUGAGCUGGACAAAAGCAUGUACAUGAGGAUCACCCAUGUUAUGUACAAGCUUUUUGCUCGUCUUAAUA [Zipper 49 - 10] (puzzle: Sensor for hsa-mir-208a) | – | – | – | 165 | 14.3 | 238 |
| GCUAGAAUAAAUGCCUACAUGAGGAUCACCCAUGUAUGUAGGCAGGAUAUCGUAUGCAAAGCAUACGAGAAGGGCCUUACUAGC [Mat - Same State NG 3 - JL Mod - D30] (Eterna round: R96, puzzle: Same State NG 3) | 22.7 | 55.4 | 85.2 | – | – | – |
| UUAAAACAUGAGGAUCACCCAUGUCAUCUAAGUCGAGGAUAUGGGCAUAUAAUAUAAGAACCAGAAGGCGAAUAUU [Mat - Same State 1 - Mod of UCT - D26] (puzzle: Same State 1) | – | – | – | 113 | 37.7 | 58.4 |
| AACAUUCUAUCUCAGGAUAUCAUGUCAAAGACAUGAGGAUCACCCAUGUACCAGGAAACUGGUUAUGAGAAGGGAGAUAGAAUGA [Mat - Same State 2 - Mod - D45] (Eterna round: R96, puzzle: Same State 2) | 267 | 517 | 1080 | – | – | – |
| UUGAAUAAUUAAGGAUAUUGAGUACAUAUGUUUAACAUGAGGAUCACCCAUGUGGGUUGCGGUAUCGAGAAGGUAAAUUACUAG [Mat - same State NG 2 - JL mod - D67] (Eterna round: R96, puzzle: Same State NG 2) | 145 | 83.8 | 125 | – | – | – |
| GCCUCUGCUCCACAGGAUAUGCGCUGUUGUACAUGAGGAUCACCCAUGUGCAGCCGACCAGAGCUGCAGAAGGGUGAGAGAGAGU [Atisanesxe] (puzzle: Same State 2) | – | – | – | 28.6 | 253 | 243 |
| GAUCGUUUGAUAGGAUAUCGCUAUACAUGAGGAUCACCCAUGUUUACCACGCUGGUUUUUCAUACCGAGAAGGAUUCUGAUGAG [salish99_SSNG02_r04_008] (Eterna round: R96, puzzle: Same State NG 2) | 64.8 | 49.7 | 56.1 | – | – | – |
| GCCGCGAAGCGAGGAUAUACUGUCCGAGAGCCGCAAACAUGAGGAUCACCCAUGUAGGUGAGACCGUAGAAGGCGUAAGCGCAA [Eternabot solution 19] (Eterna round: R96, puzzle: Same State NG 2) | 46 | 235 | 331 | – | – | – |
| GUAGCAUACCGAGGAUAUUCAUAUUAACAUGAGGAUCACCCAUGUUUAGGCCGAUUACGGCCUUGGGAGAAGGCGGAAUGCUAC [Xeonanis - 20 Mod22] (Eterna round: R96, puzzle: Same State NG 2) | 10.9 | 14.9 | 25.1 | – | – | – |
| GCUCGACGUAUUGUCUACAUGAGGAUCACCCAUGUAGGUGCGGAGGAUAUUUACGUGUCUCAUGUAGAGAAGGCCGUGUCGAGC [SameState NG3 #96] (Eterna round: R96, puzzle: Same State NG 3) | 37.1 | 216 | 329 | – | – | – |
| GUCAGGCAAGCUUUUUUCUCGUAGUGUAAACAUGAGGAUCACCCAUGUGCUCGCCCUGGAUCUUUGGAUCGCGGAAA [Xeatesis] (puzzle: Sensor for hsa-mir-208a) | – | – | – | 34.6 | 19.8 | 36.5 |
| GAGCCAGUCCGAGGAUAUUCAUACAUGAGGAUCACCCAUGUAGGCUCAGAAAAGAAAGAGCCUUGGGAGAAGGCGGACUGGCUC [Xeonanisa<<6] (Eterna round: R96, puzzle: Same State NG 2) | 6.96 | 6.06 | 10.9 | – | – | – |
| AGUAGUUUAACAUGAGGAUCACCCAUGUAUGUAUAUGUAACCUAGGAUAUGGAGGUUUUAUUUAACCAGAAGGAGGAUUGUUUA [JR_SSNG3_Sub043] (Eterna round: R96, puzzle: Same State NG 3) | 18.3 | 15.8 | 20.7 | – | – | – |
| GCCAUCGCAUGAGGAUAUGGCACCGAAACGGUGCCAGAAGGCAUGUCGUAAGACAUGAGGAUCACCCAUGUAGUUAAGAUGGCA [Mat - Same State NG 1 - JL mod - D91] (Eterna round: R96, puzzle: Same State NG 1) | 215 | 229 | 907 | – | – | – |
| UCAAUCAUGUAAGGAUAUGCAGCCGUUUCGGCUGCAGAAGGUACUAUAAUUACAUGAGGAUCACCCAUGUUAUAAAAUUUAUAU [JL SSNG1 1.26] (Eterna round: R96, puzzle: Same State NG 1) | 33.6 | 101 | 217 | – | – | – |
| UGUUGUAUUACAGGAUAUCUAGUAUUUUUAUGUAGAGAAGGGUAUUCACAUGAGGAUCACCCAUGUAUAUACGAGGAAGUUGUG [JMF's solution 52] (Eterna round: R96, puzzle: Same State NG 1) | – | 28.9 | – | – | – | – |
| UUAAGCAACGGGCAGGAUAUGUAUUAAAAUACAUGAGGAUCACCCAUGUGCAGGUGUAACACCUGACAGAAGGGCCAAUCGCUGC [Soteed - 7] (puzzle: Same State 2) | – | – | – | 63.8 | 531 | 900 |
